Results on two molecules are retold here after PMC3282181.

The term Kd denotes the concentration at which binding is half-saturated.

In data set [1] the target is T1, wtTIA-RRM123 (Homo sapiens, UniProt P31483-2 1-274).
T1 sequence: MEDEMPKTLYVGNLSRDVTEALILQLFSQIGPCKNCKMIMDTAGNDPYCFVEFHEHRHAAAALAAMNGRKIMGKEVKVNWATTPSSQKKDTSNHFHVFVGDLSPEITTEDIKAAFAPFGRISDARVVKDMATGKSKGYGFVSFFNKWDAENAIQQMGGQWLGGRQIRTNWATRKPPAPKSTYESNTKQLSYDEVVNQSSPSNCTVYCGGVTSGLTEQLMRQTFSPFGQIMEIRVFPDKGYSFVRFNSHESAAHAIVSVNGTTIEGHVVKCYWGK
The data set is described as follows: EMSA. For orientation: A gel shift assay detects complexes by their altered migration in electrophoresis.

Data set [2] deals with T1, wtTIA-RRM123. The data set is described as follows: ITC. A general note: Isothermal titration calorimetry measures the heat released or taken up as one component is titrated into another.
Data set [3] addresses T2, TIA-Mut3 (Homo sapiens, UniProt P31483-2 1-274, Y206A;F242A).
T2 sequence: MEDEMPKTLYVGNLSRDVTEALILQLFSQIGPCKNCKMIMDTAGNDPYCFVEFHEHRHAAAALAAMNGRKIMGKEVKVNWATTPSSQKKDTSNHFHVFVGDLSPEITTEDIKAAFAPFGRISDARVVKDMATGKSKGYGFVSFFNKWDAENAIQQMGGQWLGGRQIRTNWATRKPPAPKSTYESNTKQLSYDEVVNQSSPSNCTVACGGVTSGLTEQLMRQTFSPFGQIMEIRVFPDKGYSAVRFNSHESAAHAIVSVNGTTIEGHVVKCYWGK
The data set is described as follows: ITC.

Data set [4] addresses T1, wtTIA-RRM123. The data set is described as follows: ITC. The source holds these as a separate data set.
The target in data set [5] is T2, TIA-Mut3. The data set is described as follows: ITC. The source holds these as a separate data set.
The target of data set [6] is T1, wtTIA-RRM123. In words: ITC. The source holds these as a separate data set.

Like-named read-outs stand apart in the source and are kept apart here.

For UUAUUUAUUUA (ssRNA) [tnf-a ARE RNA (11 nt)], the binding result in data set [1] is listed as “binds”.
As for UUUUUUUUUUUUUUUUUUUU (ssRNA) [U20 RNA], the Kd stood at 240 ± 10 nM in data set [2]; 14.4 ± 6.1 nM in data set [3]; 0.5 ± 0.1 nM in data set [4]; 1270 ± 60 nM in data set [5]; 620 ± 70 nM in data set [6].
